The text below walks through data of paper PMC6508782.

In the assay the target is Hcf106 G6CV14C (Pisum sativum). The experiment in a line: cross-linking; disulfide cross-linking with 1 mM CuP for 5 min of [3H]Hcf106 Cys variants integrated into NEM-pretreated thylakoid; non-reducing SDS-PAGE, fluorography.

One may read the stoichiometry N as a count of units in the complex or per binding partner.

Take Hcf106 G6CV14C (natural protein): the stoichiometry N was under 8.
